Measurements from US10065993B2, “Peptides and peptide/active compound conjugates for renal targeting” (MERCK PATENT GMBH, priority 2013, dated 2018).
Ends that are not written are not given here. Peptide text beside a SMILES is read from it. * marks the point of attachment. ξ: configuration not given here. Lipoyl(6ξ) = O=C(CCCCC1CCSS1)*

Columns and labels:
kidney = test: Scintigraphic / SPECT distribution of radiolabelled peptides and conjugates (kidney selectivity); parameters: species or system NMRI mice; details: mouse, in vivo; for kidney specificity: iv
Method: The labelling is carried out using a 1 mM stock solution of the peptide to be labelled in water (dimethyl sulfoxide (DMSO) may have to be added for better solubility). Tyrosine-containing peptides are labelled with iodine-123, iodine-125 or iodine-131 (Perkin-Elmer, Waltham, Mass., USA) by means of the chloramine-T method. To this end, 20 μl of phosphate buffer (0.25 M, pH 7.4) are added to 10 μl of the stock solution, and the desired amount of radioactive iodine is added. For the labelling, 5 μl of chloramine-T (2 mg/ml of H2O) are added. The reaction is carried out for 30 seconds and is subsequently terminated using 10 μl of a saturated methionine solution. In order to separate off free iodine and by-products, the reaction mixture is purified by means of semipreparative HPLC (Chromolith RP-18e, 100×4.6 mm). The separation is carried out using a linear gradient from 0.1% of TFA in water to 0.1% of TFA in acetonitrile in 10 minutes (flow rate: 2 ml/min, UV absorption at 214 nm, γ detection). The solvent is subsequently removed in a rotary evaporator, and the labelled peptide is taken up in the desired buffer.
The tyrosine-containing peptides are labelled with ^125iodine by means of the chloramine-T method. For the labelling, a 1 mM stock solution in water is used. If necessary, DMSO is added for better solubility. To this end, 20 μl of phosphate buffer (0.25 M, pH 7.4) are added to 10 μl of the stock solution, and the desired amount of radioactive iodine is added. The labelling is carried out using 5 μl of chloramine-T (2 mg/ml of H2O). The reaction is carried out for 30 seconds and is subsequently terminated using 10 μl of a saturated methionine solution.
After the labelling, the peptide is purified by means of semi-preparative HPLC in order to remove the excess free iodine and other by-products. 100 μl of the 0.1 mM stock solution are in each case used for the injection. Before the injection, the radioactivity is recorded by means of a Geiger counter. […]

[1] = system: kidneys (i.e. proximal tubule cells, PTCs); details: in vivo; cited from earlier work

Row | Compound | kidney specificity (kidney) | also measured
1 | diacetylcaffeic acid (KKEEE)3K: diacetylcaffeic acid bonded at the N terminal of y(KKEEE)3K (KKEEEKKEEEKKEEEK-NH2; not fully specified (N-terminus)) | retain their high kidney specificity | 
2 | NCCCCC(NC(=O)C(CCC(=O)O)NC(=O)C(CCC(=O)O)NC(=O)C(CCC(=O)O)NC(=O)C(CCCCNC(=O)CCCCC1CCSS1)NC(=O)C(CCCCN)NC(=O)C(CCCCN)NC(=O)C(CCC(=O)O)NC(=O)C(CCC(=O)O)NC(=O)C(CCC(=O)O)NC(=O)C(CCCCNC(=O)CCCCC1CCSS1)NC(=O)C(CCCCN)NC(=O)C(CCCCN)NC(=O)C(CCC(=O)O)NC(=O)C(CCC(=O)O)NC(=O)C(CCC(=O)O)NC(=O)C(CCCCNC(=O)CCCCC1CCSS1)NC(=O)C(CCCCN)NC(=O)C(CCCCN)NC(=O)C(N)Cc1ccc(O)cc1)C(N)=O (stereo not shown) [y(KKKε(lipoic acid)EEE)3K] (H-YKKK(Lipoyl(6ξ))EEEKKK(Lipoyl(6ξ))EEEKKK(Lipoyl(6ξ))EEEK-NH2; configuration not given here) | high kidney specificity | 
3 | C[C@@H](O)[C@@H]1NC(=O)[C@H](CCCCN)NC(=O)[C@@H](Cc2c[nH]c3ccccc23)NC(=O)[C@H](Cc2ccc(O)cc2)NC(=O)[C@@H](NC(=O)[C@@H](Cc2ccccc2)NC(=O)CN2CCN(CC(=O)O)CCN(CC(=O)O)CCN(CC(=O)O)CC2)CSSC[C@@H](C(=O)N[C@H](CO)[C@@H](C)O)NC1=O [DOTATOC] |  | uptake by the kidneys [1]: about 20%
4 | (APASLYN)2: dimer of literature kidney-selective peptide APASLYN (Denby et al.), SEQ ID NO: 90 (APASLYNAPASLYN; not fully specified) |  | kidney selectivity (kidney): already inadequate
